Source: article PMC11779939, “Identification of novel 7-hydroxycoumarin derivatives as ELOC binders with potential to modulate CRL2 complex formation” (Scientific Reports, 2025)
Non-standard residues stand in square brackets, D forms with d. No end group written: not given here. *: point of attachment. FITC = O=C1OC2(c3ccc(O)cc3Oc3cc(O)ccc32)c2ccc(NC(=S)*)cc21; Hyp = O=C(O)[C@@H]1C[C@@H](O)CN1

Target: VHL-ELOB-ELOC (VBC) complex (UniProt P40337 54-213; Q15370 1-104; Q15369 17-112)
Assay: fluorescence polarisation; competitive FP for fragment screening, 384-well plates; 0.5 uM VBC, 20 nM FITC peptide, 10 mM HEPES pH 7.5, 0.0025% Tween 20, 50 mM NaCl, 1 mM EDTA, 1 mM DTT; small-molecule competitors (VH032 as reference)
Settings: both partners purified

binding result: binds
Binder: {FITC}-LEALA[Hyp]YIPA [FITC-LEALA-HyP-YIPA peptide]
